In IntAct's records for PubMed 31515488:

B1: Retinoic acid receptor alpha (Homo sapiens), P10276 (parent)
chain: MASNSSSCPTPGGGHLNGYPVPPYAFFFPPMLGGLSPPGALTTLQHQLPVSGYSTPSPATIETQSSSSEEIVPSPPSPPPLPRIYKPCFVCQDKSSGYHYGVSACEGCKGFFRRSIQKNMVYTCHRDKNCIINKVTRNRCQYCRLQKCFEVGMSKESVRNDRNKKKKEVPKPECSESYTLTPEVGELIEKVRKAHQETFPALCQLGKYTTNNSSEQRVSLDIDLWDKFSELSTKCIIKTVEFAKQLPGFTTLTIADQITLLKAACLDILILRICTRYTPEQDTMTFSDGLTLNRTQMHNAGFGPLTDLVFAFANQLLPLEMDDAETGLLSAICLICGDRQDLEQPDRVDMLQEPLLEALKVYVRKRRPSRPHMFPKMLMKITDLRSISAKGAERVITLKMEIPGSMPPLIQEMLENSEGLDTLSGQPGGGGRDGGGLAPPPGSCSPSLSPSSNRSSPATHSP
partner: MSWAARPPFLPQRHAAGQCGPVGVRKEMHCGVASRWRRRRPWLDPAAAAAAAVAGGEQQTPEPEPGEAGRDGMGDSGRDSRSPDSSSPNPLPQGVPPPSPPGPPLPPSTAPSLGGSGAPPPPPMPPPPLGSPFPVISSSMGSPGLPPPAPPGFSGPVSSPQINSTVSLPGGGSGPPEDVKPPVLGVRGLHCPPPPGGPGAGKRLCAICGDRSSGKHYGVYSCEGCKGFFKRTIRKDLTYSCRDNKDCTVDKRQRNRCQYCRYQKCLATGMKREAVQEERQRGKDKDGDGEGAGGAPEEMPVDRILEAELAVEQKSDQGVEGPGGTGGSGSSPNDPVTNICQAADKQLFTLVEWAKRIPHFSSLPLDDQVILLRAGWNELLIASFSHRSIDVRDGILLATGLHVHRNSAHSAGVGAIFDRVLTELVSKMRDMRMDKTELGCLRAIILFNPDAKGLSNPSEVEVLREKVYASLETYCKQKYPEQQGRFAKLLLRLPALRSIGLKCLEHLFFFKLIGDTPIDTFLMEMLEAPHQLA
B2: LHFPL tetraspan subfamily member 5 protein (Homo sapiens), Q8TAF8 (parent)
chain: MVKLLPAQEAAKIYHTNYVRNSRAVGVMWGTLTICFSVLVMALFIQPYWIGDSVNTPQAGYFGLFSYCVGNVLSSELICKGGPLDFSSIPSRAFKTAMFFVALGMFLIIGSIICFSLFFICNTATVYKICAWMQLAAATGLMIGCLVYPDGWDSSEVRRMCGEQTGKYTLGHCTIRWAFMLAILSIGDALILSFLAFVLGYRQDKLLPDDYKADGTEEV
partner: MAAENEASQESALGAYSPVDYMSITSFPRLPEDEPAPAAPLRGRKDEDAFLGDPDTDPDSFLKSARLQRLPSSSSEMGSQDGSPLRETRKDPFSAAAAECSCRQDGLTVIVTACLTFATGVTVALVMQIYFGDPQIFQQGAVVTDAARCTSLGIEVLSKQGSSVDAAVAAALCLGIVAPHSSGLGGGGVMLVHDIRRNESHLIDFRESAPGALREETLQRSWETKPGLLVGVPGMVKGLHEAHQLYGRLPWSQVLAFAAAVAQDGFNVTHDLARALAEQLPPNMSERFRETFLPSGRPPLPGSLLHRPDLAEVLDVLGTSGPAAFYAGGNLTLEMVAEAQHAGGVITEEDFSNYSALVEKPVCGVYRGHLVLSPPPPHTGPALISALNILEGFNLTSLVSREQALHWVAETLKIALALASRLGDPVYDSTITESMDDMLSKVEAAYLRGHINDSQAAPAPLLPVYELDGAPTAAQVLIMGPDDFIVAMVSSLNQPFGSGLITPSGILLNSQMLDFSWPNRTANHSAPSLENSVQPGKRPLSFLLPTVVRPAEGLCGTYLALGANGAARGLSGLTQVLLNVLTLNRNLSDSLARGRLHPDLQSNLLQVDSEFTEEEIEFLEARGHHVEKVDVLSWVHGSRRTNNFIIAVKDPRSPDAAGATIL
B3: Isoform 1 of Cyclin-dependent kinase 2-interacting protein (Homo sapiens), Q9BW66-1 (parent)
chain: MEAKTLGTVTPRKPVLSVSARKIKDNAADWHNLILKWETLNDAGFTTANNIANLKISLLNKDKIELDSSSPASKENEEKVCLEYNEELEKLCEELQATLDGLTKIQVKMEKLSSTTKGICELENYHYGEESKRPPLFHTWPTTHFYEVSHKLLEMYRKELLLKRTVAKELAHTGDPDLTLSYLSMWLHQPYVESDSRLHLESMLLETGHRAL
partner: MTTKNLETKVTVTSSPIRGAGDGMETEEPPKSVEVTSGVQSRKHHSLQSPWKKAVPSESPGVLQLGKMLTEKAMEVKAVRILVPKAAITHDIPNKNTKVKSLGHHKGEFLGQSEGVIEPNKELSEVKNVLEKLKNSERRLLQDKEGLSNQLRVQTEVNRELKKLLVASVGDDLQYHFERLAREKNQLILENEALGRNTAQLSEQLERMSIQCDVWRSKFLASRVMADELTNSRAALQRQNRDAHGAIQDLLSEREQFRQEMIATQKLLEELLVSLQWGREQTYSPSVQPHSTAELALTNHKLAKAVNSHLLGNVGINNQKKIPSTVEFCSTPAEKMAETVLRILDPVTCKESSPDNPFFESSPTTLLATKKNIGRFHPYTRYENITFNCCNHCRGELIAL
B4: 6-pyruvoyl tetrahydrobiopterin synthase (Homo sapiens), Q03393 (parent)
chain: MSTEGGGRRCQAQVSRRISFSASHRLYSKFLSDEENLKLFGKCNNPNGHGHNYKVVVTVHGEIDPATGMVMNLADLKKYMEEAIMQPLDHKNLDMDVPYFADVVSTTENVAVYIWDNLQKVLPVGVLYKVKVYETDNNIVVYKGE

Variants of: B1
Settings: with rxrb_human RXRB

effect of a mutation on the interaction	Variant
with no effect	MASNSSSCPTPGGGHLNGYPVPPYAFFFPPMLGGLSPPGALTTLQHQLPVSGYSTPSPATIETQSSSSEEIVPSPPSPPPLPRIYKPCFVCQDKSSGYHYGVSACEGCKGFFRRSIQKNMVYTCHRDKNCIINKVTRNRCQYCRLQKCFEVGMSKESVRNDRNKKKKEVPKPECSESYTLTPEVGELIEKVRKAHQETFPALCQLGKYTTNNSSEQRVSLDIDLWDKFSELSTKCIIKTVEFAKQLPGFTTLTIADQITLLKAACLDILILRICTRYTPEQDTMTFSDGLTLNRTQMHNAGFGPLTDLVFAFANQLLRLEMDDAETGLLSAICLICGDRQDLEQPDRVDMLQEPLLEALKVYVRKRRPSRPHMFPKMLMKITDLRSISAKGAERVITLKMEIPGSMPPLIQEMLENSEGLDTLSGQPGGGGRDGGGLAPPPGSCSPSLSPSSNRSSPATHSP [P318R]

Variants of: B2
Settings: with ggt7_human GGT7, Q9UJ14

effect of a mutation on the interaction	Variant
with no effect	MVKLLPAQEAAKIYHTNYVRNSRAVGVMWGTLTICFSVLVMALFIQPYWIGDSVNTPQAGYFGLFSYCVGNVLSSELICKGGPLDFSSIPSRAFKTAMFFVALGMFLIIGSIICFSLFFICNTATVYKICAWMQLAAATGLMIGCLVYPDGWDSSEVRRMCGEQTGKYTLGHCTIRWAFMLAILSIGDALILSFLAFVLGYRQDNLLPDDYKADGTEEV [K205N]

Variants of: B3
Settings: with go45_human BLZF1, Q9H2G9

effect of a mutation on the interaction	Variant
with no effect	MEAKTLGTVTPRKPVLSVSARKIKDNAADWHNLILKWETLNDAGFTTANNIANLKISLLNKDKIELDSSSPASKENEEKVCLEYNEELEKLCEELQATLDGLTKIQVKMEKLSSTTKGICELENYHYGEESKRPPLFHTWPTTHFYEVSHKLLEMYRKELLLKRTVAKELAHTGDPNLTLSYLSMWLHQPYVESDSRLHLESMLLETGHRAL [D177N]

Variants of: B3
Settings: with go45_human BLZF1, Q9H2G9
Remark: another data set of the same source

effect of a mutation on the interaction	Variant
with no effect	MEAKTLGTVTPRKPVLSVSARKIKDNAADWHNLILKWETLNDAGFTTANNIANLKISLLNKDKIELDSSSPASKENEEKVCLEYNEELEKLCEELQATLDGLTKIQVKMEKLSSTTKGICELENYHYGEESKRPPLFHTWPTTHFYEVSHKLLEMYRKELLLKHTVAKELAHTGDPDLTLSYLSMWLHQPYVESDSRLHLESMLLETGHRAL [R164H]

Variants of: B4
Settings: with ntaq1_human NTAQ1, Q96HA8

effect of a mutation on the interaction	Variant
disrupting interaction strength	MSTEGGGRRCQAQVSRRISFSASHRLYSKFLSDEENLKLFGKCNNPNGHGHNYKVVVTVHGEIDPATGMVMNLADLKKYMEEAIMQPLDHKNLDMDVPYFADVVSTTENVAVYIWDNLQKVLSVGVLYKVKVYETDNNIVVYKGE [P123S]
disrupting interaction strength	MSTEGGGRRCQAQVSRRISFSASHRLYSKFLSDEENLKLFGKCNNPNGHGHNYKVVVTVHGEIDPAMGMVMNLADLKKYMEEAIMQPLDHKNLDMDVPYFADVVSTTENVAVYIWDNLQKVLPVGVLYKVKVYETDNNIVVYKGE [T67M]
disrupting interaction strength	MSTEGGGRRCQAQVSRRISFSASHQLYSKFLSDEENLKLFGKCNNPNGHGHNYKVVVTVHGEIDPATGMVMNLADLKKYMEEAIMQPLDHKNLDMDVPYFADVVSTTENVAVYIWDNLQKVLPVGVLYKVKVYETDNNIVVYKGE [R25Q]
disrupting interaction strength	MSTEGGGRRCQAQVSRRISFSASHRLYSKFLSDEENLKLFGKCNNPNGHGHNYKVVVTVHGEIDPATGMVMNLADLKKYMEEAIMQPLDHKNLDMDVPYFADVVSMTENVAVYIWDNLQKVLPVGVLYKVKVYETDNNIVVYKGE [T106M]

Variants of: B4
Settings: with c1qc_human C1QC

effect of a mutation on the interaction	Variant
disrupting interaction strength	MSTEGGGRRCQAQVSRRISFSASHQLYSKFLSDEENLKLFGKCNNPNGHGHNYKVVVTVHGEIDPATGMVMNLADLKKYMEEAIMQPLDHKNLDMDVPYFADVVSTTENVAVYIWDNLQKVLPVGVLYKVKVYETDNNIVVYKGE [R25Q]
disrupting interaction strength	MSTEGGGRRCQAQVSRRISFSASHRLYSKFLSDEENLKLFGKCNNPNGHGHNYKVVVTVHGEIDPATGMVMNLADLKKYMEEAIMQPLDHKNLDMDVPYFADVVSMTENVAVYIWDNLQKVLPVGVLYKVKVYETDNNIVVYKGE [T106M]

Variants of: B4
Settings: with fxr2_human FXR2, P51116

effect of a mutation on the interaction	Variant
disrupting interaction strength	MSTEGGGRRCQAQVSRRISFSASHQLYSKFLSDEENLKLFGKCNNPNGHGHNYKVVVTVHGEIDPATGMVMNLADLKKYMEEAIMQPLDHKNLDMDVPYFADVVSTTENVAVYIWDNLQKVLPVGVLYKVKVYETDNNIVVYKGE [R25Q]
disrupting interaction strength	MSTEGGGRRCQAQVSRRISFSASHRLYSKFLSDEENLKLFGKCNNPNGHGHNYKVVVTVHGEIDPATGMVMNLADLKKYMEEAIMQPLDHKNLDMDVPYFADVVSMTENVAVYIWDNLQKVLPVGVLYKVKVYETDNNIVVYKGE [T106M]

Variants of: B4
Settings: with sdcb1_human SDCBP

effect of a mutation on the interaction	Variant
disrupting interaction strength	MSTEGGGRRCQAQVSRRISFSASHRLYSKFLSDEENLKLFGKCNNPNGHGHNYKVVVTVHGEIDPATGMVMNLADLKKYMEEAIMQPLDHKNLDMDVPYFADVVSMTENVAVYIWDNLQKVLPVGVLYKVKVYETDNNIVVYKGE [T106M]
